Measurements as given in the DeepSol protein solubility set.

Assay: soluble on expression in E. coli; label from the status in PepcDB or PDB records

Soluble on expression in E. coli, soluble:
MGSSHHHHHHSSGLVPRGSHMDLSAASHRIPLSDGNSIPIIGLGTYSEPKSTPKGACATSVKVAIDTGYRHIDGAYIYQNEHEVGEAIREKIAEGKVRREDIFYCGKLWATNHVPEMVRPTLERTLRVLQLDYVDLYIIEVPMAFKPGDEIYPRDENGKWLYHKSNLCATWEAMEACKDAGLVKSLGVSNFNRRQLELILNKPGLKHKPVSNQVECHPYFTQPKLLKFCQQHDIVITAYSPLGTSRNPIWVNVSSPPLLKDALLNSLGKRYNKTAAQIVLRFNIQRGVVVIPKSFNLERIKENFQIFDFSLTEEEMKDIEALNKNVRFVELLMWRDHPEYPFHDEY
MGSSHHHHHHSSGLVPRGSHMFTTKLAEKVVSAWKAKISQPALKAAQDGVIDTVAAALGGVTEHSVQVALKYVAATGGSGDSKLWGVNQRSNMFDAAFVNGMAAHAIDFDDSFPVMRGHPSSSLVPAIFAVGEHVGANGHNCLKSYVLGIEVVATLGRAVGKGHYLAGWHPTSTLGVFGATTAAALLLGADEEQLRNAWGIAASNSCGIIKNFGTMTKPMHTGSAARNGVLSAWLSMQSFTGCQTVFDDAEGILAMYGAQPGPELFNAMQKFGTPWAIIAPGLYKKSWPSCYANHKPLAGLFAIMKEHGLTGQDISHVDVGFLPGVEKPLLYMDPRTTEEAKFSIEANIGAALLDGEVSLASFEIEHLDRPAMRAAMKKVTRFDMPSETTFSGTTGYTDIVVHTADGKIERRIEATPGSLEDPMDDAHLERKFKDCTAWMPFGESGLLFDRLRSLTADQGIKTVQP
MGSSHHHHHHSSGLVPRGSHMGEMLERQKKRLPSKAKYLKYTASITETGNHEADSSVIFRPHHSDVTCSNARRAESRTLPQICSCILLDHGRRTRPEVRTGMVSLHGSFKGFPCFGIRRGISHVLPGQKLRGSCDNWKKRQN
MGSSHHHHHHSSGLVPRGSHMIMIHIKAIHDLTVPLETYMPIWPTNPLLEIKPVGTVARDGYKIETISGSTHSGTHIDAPAHMLENGITIDQIDPIRFIGTGYCIKTIPDGNFVRSTHLIEKWKEEYDGSIILIETGWYKKRGFTREFQYEFPGLTEDAAEFLIERNVKLVGIDTLGIEPYQDSDFHVHKKLLSKGIPFIEDLYGLDDLEEGKPYLVVALPLKMKGASGSMARVMALEMD
MGSSHHHHHHSSGLVPRGSHMIMLRIPTRSYCSPSKLIKGVGLSPLKKSLLSKKIKEDIHPSLPVRTRFAPSPTGFLHLGSLRTALYNYLLARNTNGQFLLRLEDTDQKRLIEGAEENIYEILKWCNINYDETPIKQSERKLIYDKYVKILLSSGKAYRCFCSKERLNDLRHSAMELKPPSMASYDRCCAHLGEEEIKSKLAQGIPFTVRFKSPERYPTFTDLLHGQINLQPQVNFNDKRYDDLILVKSDKLPTYHLANVVDDHLMGITHVIRGEEWLPSTPKHIALYNAFGWACPKFIHIPLLTTVGDKKLSKRKGDMSISDLKRQGVLPEALINFCALFGWSPPRDLASKKHECFSMEELETIFNLNGLTKGNAKVDDKKLWFFNKHFLQKRILNPSTLRELVDDIMPSLESIYNTSTISREKVAKILLNCGGSLSRINDFHDEFYYFFEKPKYNDNDAVTKFLSKNESRHIAHLLKKLGQFQEGTDAQEVESMVETMYYENGFSRKVTYQAMRFALAGCHPGAKIAAMIDILGIKESNKRLSEGLQFLQREKK
MGSSHHHHHHSSGLVPRGSHMKLNRVVVTGYGVTSPIGNTPEEFWNSLATGKIGIGGITKFDHSDFDVHNAAEIQDFPFDKYFVKKDTNRFDNYSLYALYAAQEAVNHANLDVEALNRDRFGVIVASGIGGIKEIEDQVLRLHEKGPKRVKPMTLPKALPNMASGNVAMRFGANGVCKSINTACSSSNDAIGDAFRSIKFGFQDVMLVGGTEASITPFAIAGFQALTALSTTEDPTRASIPFDKDRNGFVMGEGSGMLVLESLEHAEKRGATILAEVVGYGNTCDAYHMTSPHPEGQGAIKAIKLALEEAEISPEQVAYVNAAGTSTPANEKGESGAIVAVLGKEVPVSSTKSFTGHLLGAAGAVEAIVTIEAMRHNFVPMTAGTSEVSDYIEANVVYAQGLEKEIPYAISNTFGFGGHNAVLAFKRWENR
MGSSHHHHHHSSGLVPRGSHMLDFNIEGLIPKNMEKRGELVLNEYLKEIEDVFNHRKIPENGIDDEKIKLFLKFLSMMDTDKDPKSVRIGEREARTYSKIHEELSSGFCHGIGRSGNLVDPQPKASGASIMYALTNKILESFFKQLGLNVHAIATPISTGMSISLCLSAARKKYGSNVVIYPYASHKSPIKAVSFVGMNMRLVETVLDGDRVYVPVEDIENAIKKEIELGNRPCVLSTLTFFPPRNSDDIVEIAKICENYDIPHIINGAYAIQNNYYLEKLKKAFKYRVDAVVSSSDKNLLTPIGGGLVYSTDAEFIKEISLSYPGRASATPVVNTLVSLLSMGSKNYLELVKNQKNSKKLLDELLNDLSKKTGGKFLDVESPIASCISVNSDPVEIAAKLYNLRVTGPRGIKKTDHFGNCYLGTYTHDYIVMNAAIGVRTEDIVNSVSKLEKILL
MGSSHHHHHHSSGLVPRGSHMLESSGNRDIAQVVTENNKNYLVLYASQTGTAEDYAKKFSKELVAKFNLNVMCADVENYDFESLNDVPVIVSIFISTYGEGDFPDGAVNFEDFICNAEAGALSNLRYNMFGLGNSTYEFFNGAAKKAEKHLSAAGAIRLGKLGEADDGAGTTDEDYMAWKDSILEVLKDELGVEATGEESSIRQYELVVHTDIDAAKVYMGEMGRLKSYENQKPPFDAKNPFLAAVTTNRKLNQGTERHLMHLELDISDSKIRYESGDHVAVYPANDSALVNQLGKILGADLDVVMSLNNLDEESNKKHPFPCPTSYRTALTYYLDITNPPRTNVLYELAQYASEPSEQELLRKMASSSGEGKELYLSWVVEARRHILAILQDCPSLRPPIDHLCELLPRLQARYYSIASSSKVHPNSVHICAVVVEYETKAGRINKGVATNWLRAKEPAGENGGRALVPMFVRKSQFRLPFKATTPVIMVGPGTGVAPFIGFIQERAWLRQQGKEVGETLLYYGCRRSDEDYLYREELAQFHRDGALTQLNVAFSREQSHKVYVQHLLKQDREHLWKLIEGGAHIYVCGDARNMARDVQNTFYDIVAELGAMEHAQAVDYIKKLMTKGRYSLDVWS
MGSSHHHHHHSSGLVPRGSHMNNIDFDSIAKMLLIKYKDFILSKFKKAAPVENIRFQNLVHTNQFAQGVLGQSQHLCTVYDNPSWHSIVLETLDLDLIYKNVDKEFAKDGHAEGENIYTDYLVKELLRYFKQDFFKWCNKPDCNHCGQNTSENMTPLGSQGPNGEESKFNCGTVEIYKCNRCGNITRFPRYNDPIKLLETRKGRCGEWCNLFTLILKSFGLDVRYVWNREDHVWCEYFSNFLNRWVHVDSCEQSFDQPYIYSINWNKKMSYCIAFGKDGVVDVSKRYILQNELPRDQIKEEDLKFLCQFITKRLRYSLNDDEIYQLACRDEQEQIELIRGKTQETKSESVSAASK
MGSSHHHHHHSSGLVPRGSHMNQDPTQQLEPFLKRFLASLDLLYTQPTSQPFPNVESYATQLGSNLKRSSAIIVNGQPIIPSPQEDCKLQFQKKWLQTPLSSHQLTSYDGHLIPGTGTFVVHFSAKVRFDQSGRNRLGESADLFQENNSIVSKTNQRPIWGSWFGVDVNLVVDENVMQDGEIINSMDYRFTYVPNDSIIKV
MGSSHHHHHHSSGLVPRGSHMSSEFIEAGAADRVRILSEALPYLQQFAGRTVVVKYGGAAMKQEELKEAVMRDIVFLACVGMRPVVVHGGGPEINAWLGRVGIEPQFHNGLRVTDADTMEVVEMVLVGRVNKDIVSRINTTGGRAVGFCGTDGRLVLARPHDQEGIGFVGEVNSVNSEVIEPLLERGYIPVISSVAADENGQSFNINADTVAGEIAAALNAEKLILLTDTRGILEDPKRPESLIPRLNIPQSRELIAQGIVGGGMIPKVDCCIRSLAQGVRAAHIIDGRIPHALLLEIFTDAGIGTMIVGSGYHEAHQPWQ
MGSSHHHHHHSSGRENLYFQGMVDADGIYYLGPEGSFTHEAASLFKGKDLKAESTISLVFKRVYERESSIGIVPIENSLEGPVNETLDNLYNYDNIYVIGEIEKKIELVLAARSDNLSQIKRIYSHPHAFNEAREKLKELGFNEYIPVESTSKAAKIVSQDSEAAAICSNFAAKLYNLKVLITISSHNNYTRFIVLSKEMNSNGNKSMILFTVPHKPGALYKVLQVFYEYNINISMIYSRPLKSIPWQYYFYLEYEGGISNREFIEKLVKSTSVLKIKGSFSKLNNDPGF
